From patent publication US20240109974A1 (SHANDONG SIMCERE BIOPHARMACEUTICAL, published 2024)

T1: human TNFR2 on the surface of CHO-TNFR2 cells (human, UniProt P20333 23-461)
T1 construct: whole, on cells
T1 sequence (looked up): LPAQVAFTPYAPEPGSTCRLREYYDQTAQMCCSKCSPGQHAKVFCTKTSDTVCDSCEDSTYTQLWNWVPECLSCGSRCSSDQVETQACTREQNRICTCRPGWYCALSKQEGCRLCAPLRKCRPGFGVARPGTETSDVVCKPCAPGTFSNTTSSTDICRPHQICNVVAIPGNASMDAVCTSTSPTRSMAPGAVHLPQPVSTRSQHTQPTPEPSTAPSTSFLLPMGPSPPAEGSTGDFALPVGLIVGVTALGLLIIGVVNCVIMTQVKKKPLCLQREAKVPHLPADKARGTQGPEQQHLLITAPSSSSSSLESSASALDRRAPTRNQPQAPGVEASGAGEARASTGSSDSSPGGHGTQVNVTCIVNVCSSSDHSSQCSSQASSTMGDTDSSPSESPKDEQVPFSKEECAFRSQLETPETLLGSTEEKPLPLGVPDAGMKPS

T2: human TNFR2 (Novoprotein, Cat #C830) (human, UniProt P20333 23-257, limits assumed)
T2 construct: construct not described; also called human TNFR2 protein
T2 sequence (looked up): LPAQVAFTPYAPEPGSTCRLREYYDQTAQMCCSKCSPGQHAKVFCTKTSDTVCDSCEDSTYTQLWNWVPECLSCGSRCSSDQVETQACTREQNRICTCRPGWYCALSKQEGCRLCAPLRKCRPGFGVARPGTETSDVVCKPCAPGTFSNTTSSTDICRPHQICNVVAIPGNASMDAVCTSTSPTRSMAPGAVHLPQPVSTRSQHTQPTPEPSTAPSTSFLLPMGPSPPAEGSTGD


Legend:
[1] = target: T1, human TNFR2 on the surface of CHO-TNFR2 …; assay: flow cytometry on CHO-TNFR2 cells; EC50, reference itself
Protocol: The transfected full-length plasmid of human TNFR2 was purchased from Sino Biological (Cat #HG10417-UT, NCBI Ref Seq: NM_001066.2). The experiment was conducted at a cell density within 80%. The cell medium was discarded; the cells were rinsed with PBS, and digested with 1 ml trypsin for 2 minutes; the digestion was stopped with a Ham's F12 complete medium containing 10% FBS, and then a cell suspension was made. The cell suspension was counted, and then an appropriate amount of cell suspension was centrifuged at 350×g; the supernatant was discarded; a corresponding volume of blocking solution (10% FBS+PBS) at a density of 1×10⁷ cells/ml was added to resuspend the cells, and the mixture was incubated at 4° C. for 30 minutes. After the incubation, the mixture was centrifuged at 350×g to remove the supernatant, and the cells were resuspended in a staining buffer (2% FBS+PBS) to a density of 2×10⁶ cells/ml, and spread onto a 96-well plate, with 50 μl of cell suspension added to each well for later use. The antibody was diluted with PBS for 10-fold gradient dilution from the highest concentration of 20 μg/m (twice the concentration); the diluted antibody was added to the well containing 50 μl of cell suspension, and placed on a microplate shaker for shaking at 500 rpm for 1 minute, so that the antibody was fully mixed with the cells; the mixture was incubated at 4° C. for 1 h. After the incubation, the cells were washed twice with the staining buffer, with 100 μl per well, and centrifuged at 350-g for 5 minutes, and the supernatant was discarded. […] After the staining, similarly, the cells were washed twice with the staining buffer; finally, the cells were resuspended in 200 μl of staining buffer; signals were detected by a flow cytometer (Thermo Attune NxT). […] The binding curve of an antibody was drawn with antibody concentration as the abscissa and corresponding mean fluorescence intensity (MFI) fold as the ordinate, and fitted with four parameters (GraphPad Prism9) to calculate the EC50 value.

[2] = target: T1, human TNFR2 on the surface of CHO-TNFR2 …; assay: flow cytometry on CHO-TNFR2 cells; AUC against 219-WT
Protocol: (§1) The transfected full-length plasmid of human TNFR2 was purchased from Sino Biological (Cat #HG10417-UT, NCBI Ref Seq: NM_001066.2). The experiment was conducted at a cell density within 80%. The cell medium was discarded; the cells were rinsed with PBS, and digested with 1 ml trypsin for 2 minutes; the digestion was stopped with a Ham's F12 complete medium containing 10% FBS, and then a cell suspension was made. The cell suspension was counted, and then an appropriate amount of cell suspension was centrifuged at 350×g; the supernatant was discarded; a corresponding volume of blocking solution (10% FBS+PBS) at a density of 1×10⁷ cells/ml was added to resuspend the cells, and the mixture was incubated at 4° C. for 30 minutes. After the incubation, the mixture was centrifuged at 350×g to remove the supernatant, and the cells were resuspended in a staining buffer (2% FBS+PBS) to a density of 2×10⁶ cells/ml, and spread onto a 96-well plate, with 50 μl of cell suspension added to each well for later use. The antibody was diluted with PBS for 10-fold gradient dilution from the highest concentration of 20 μg/m (twice the concentration); the diluted antibody was added to the well containing 50 μl of cell suspension, and placed on a microplate shaker for shaking at 500 rpm for 1 minute, so that the antibody was fully mixed with the cells; the mixture was incubated at 4° C. for 1 h. After the incubation, the cells were washed twice with the staining buffer, with 100 μl per well, and centrifuged at 350-g for 5 minutes, and the supernatant was discarded. The PE goat anti-Human IgG Fc antibody (ebioscience, Cat #12-4998-82) was diluted 250-fold with the staining buffer, with a volume of 100 μl per well added to the washed cell wells; the mixture was mixed evenly, and stained at 4° C. for 30 minutes. After the staining, similarly, the cells were washed twice with the staining buffer; finally, the cells were resuspended in 200 μl of staining buffer; signals were detected by a flow cytometer (Thermo Attune NxT). The stronger the signal, the stronger the binding ability of an antibody to TNFR2. The binding curve of an antibody was drawn with antibody concentration as the abscissa and corresponding mean fluorescence intensity (MFI) fold as the ordinate, and fitted with four parameters (GraphPad Prism9) to calculate the EC50 value.

[3] = target: T1, human TNFR2 on the surface of CHO-TNFR2 …; assay: flow cytometry on CHO-TNFR2 cells; EC50 against 219-WT
Protocol: as §1

[4] = target: T2, human TNFR2 (Novoprotein, Cat #C830); assay: competition ELISA, competitor human TNFα-Biotin; IC50 against 001-WT
Protocol: 1 μg/ml human TNFR2 (Novoprotein, Cat #C830) was pre-coated with 100 μl/well […] in an ELISA plate. All the test TNFR2 antibodies were subjected to 2.5-fold gradient dilution from the highest concentration of 30 μg/ml; the diluted antibodies were mixed with 15 ng/ml human TNFα-Biotin (Acro Biosystem, Cat #TNA-H82E3) in equal volume, respectively; the resulting mixture was added to the ELISA plate at 100 μl/well, and incubated with shaking at room temperature for 2.0 hours. The plate was washed, and then a Streptavidin-HRP working solution (diluted at 1:10000) was added at 100 μl/well, and the mixture was incubated with shaking at room temperature for 40 minutes. The plate was washed again, and then the substrate TMB of HRP was added to develop colour. A stop solution was added to stop the reaction, and then a microplate reader (MD 13) was used to read the absorbance value. The inhibitory curve of an antibody was drawn with antibody concentration as the abscissa and corresponding OD value as the ordinate, and fitted with four parameters (GraphPad Prism9) to calculate the IC50 value. The smaller the IC50 value, the stronger the ability of an antibody to inhibit the binding of human TNFα to human TNFR2. The blocking effect of a humanized antibody was normalized to its corresponding human-murine chimeric antibody WT. The higher the percentage value, the better the inhibitory effect of the humanized antibody.

% Relative activity (WT antibody/test antibody) [1] [%]	% Relative activity (Test antibody/WT antibody) [2] [%]	% Relative activity (WT antibody/test antibody) [3] [%]	% Relative activity (WT antibody/test antibody) [4] [%]	Binder
100				219-WT (antibody, V domains shown, Human-murine chimeric wild-type molecule) VH: EVQLQESGAELVRPGASVKLSCKASGYSFTNYWMNWVKQRPGQGLEWIGMIHPSDTETRLNQNFKDKATLTVDKSSSTSYMQLSSPTSEDSAVYYCARGEGLGAARSVSMDYWGQGTTVTVSS VL: DILMTQSPSSLSASLGDRVTISCRASQDISNYLNWYQQKPDGTVKVLIYYTAILHSGVPSRFSGSGSGTDYSLTISNLEQEDIATYFCQQGNTLPWTFGGGTKLEIK
	96.4	145		219-Hu3 (antibody, V domains shown, also called VH5 + VL5) VH: QVQLVQSGAEVKKPGSSVKVSCKASGYSFTNYWMNWVRQAPGQGLEWMGMIHPSDTETRLNQNFKDRVTITADKSTSTAYMELSSLRSEDTAVYYCARGEGLGAARSVSMDYWGQGTLVTVSS VL: DIQMTQSPSSLSASVGDRVTITCRASQDISNYLNWYQQKPDGTVKLLIYYTAILHSGVPSRFSGSGSGTDYSLTISSLQPEDFATYFCQQGNTLPWTFGQGTKVEIK
	93.3	147		219-Hu5 (antibody, V domains shown, also called VH7 + VL5) VH: QVQLVQSGAEVKKPGSSVKVSCKASGYSFTNYWMNWVRQAPGQGLEWMGMIHPSDTETRLNQNFKDRVTITVDKSTSTAYMELSSLRSEDTAVYYCARGEGLGAARSVSMDYWGQGTLVTVSS VL: DIQMTQSPSSLSASVGDRVTITCRASQDISNYLNWYQQKPDGTVKLLIYYTAILHSGVPSRFSGSGSGTDYSLTISSLQPEDFATYFCQQGNTLPWTFGQGTKVEIK
	103	97.1		219-Hu2 (antibody, V domains shown, also called VH4 + VL5) VH: QVQLVQSGAEVKKPGSSVKVSCKASGYSFTNYWMNWVRQAPGQGLEWMGMIHPSDTETRLNQNFKDKATITADKSTSTAYMELSSLRSEDTAVYYCARGEGLGAARSVSMDYWGQGTLVTVSS VL: DIQMTQSPSSLSASVGDRVTITCRASQDISNYLNWYQQKPDGTVKLLIYYTAILHSGVPSRFSGSGSGTDYSLTISSLQPEDFATYFCQQGNTLPWTFGQGTKVEIK
	110	100		219-Hu1 (antibody, V domains shown, also called VH3 + VL5) VH: QVQLVQSGAEVKKPGASVKVSCKASGYSFTNYWMNWVRQAPGQRLEWMGMIHPSDTETRLNQNFKDRVTITRDTSASTAYMELSSLRSEDTAVYYCARGEGLGAARSVSMDYWGQGTLVTVSS VL: DIQMTQSPSSLSASVGDRVTITCRASQDISNYLNWYQQKPDGTVKLLIYYTAILHSGVPSRFSGSGSGTDYSLTISSLQPEDFATYFCQQGNTLPWTFGQGTKVEIK
	95.6	142		219-Hu4 (antibody, V domains shown, also called VH6 + VL5) VH: QVQLVQSGAEVKKPGSSVKVSCKASGYSFTNYWMNWVKQAPGQGLEWIGMIHPSDTETRLNQNFKDKATLTVDKSTSTAYMELSSLRSEDTAVYYCARGEGLGAARSVSMDYWGQGTLVTVSS VL: DIQMTQSPSSLSASVGDRVTITCRASQDISNYLNWYQQKPDGTVKLLIYYTAILHSGVPSRFSGSGSGTDYSLTISSLQPEDFATYFCQQGNTLPWTFGQGTKVEIK
100				224-WT (antibody, V domains shown, Human-murine chimeric wild-type molecule; also called human-murine chimeric antibody WT of #224) VH: EVQLQESGPEIVKPGASVKLSCTASGFNNKDIYMHWVKQRPEQGLEWIGRIDPATGNTKHDPKFQDKATLSSDTSSNTAYLQFSSLTSEDTAVYYCAHSPYGDFGAMDYWGQGTTVTVSS VL: DIQMTQSPAIMSASLGERVTMTCTASSSVSSNYLHWYQQKPGSSPKLWIYSTSNLPSGVPARFSGSGSGTSYSLTISSMEAEDAATYYCHQYHRSPWTFGGGTKLEIK
			96.5	001-Hu5 (antibody, V domains shown, Humanized form of #001; also called VH1 + VL4) VH: EVQLVESGGGLVQPGGSLRLSCAASGFAFSTYDLSWVRQAPGKGLEWVAYINNGGISTYYSDTVKGRFTISRDNAKNTLYLQMNSLRAEDTAVYYCVRGPFYGSANYFDYWGQGTLVTVSS VL: DIQMTQSPSSLSASVGDRVTITCRTSESIYSNLPWYQQKPGKSPKLLVYDATKLAEGVPSRFSGSGSGTDYTLTISSLQPEDFATYYCQHFWVTPWTFGQGTKVEIK
			105	001-Hu4 (antibody, V domains shown, Humanized form of #001; also called VH2 + VL4) VH: EVQLVESGGGLVQPGGSLRLSCAASGFAFSTYDLSWVRQAPGKGLEWVAYINNGGISTYYSDTVKGRFTISRDNAKNSLYLQMNSLRAEDTAVYYCVRGPFYGSANYFDYWGQGTLVTVSS VL: DIQMTQSPSSLSASVGDRVTITCRTSESIYSNLPWYQQKPGKSPKLLVYDATKLAEGVPSRFSGSGSGTDYTLTISSLQPEDFATYYCQHFWVTPWTFGQGTKVEIK
			82.8	001-Hu2 (antibody, V domains shown, Humanized form of #001; also called VH2 + VL2) VH: EVQLVESGGGLVQPGGSLRLSCAASGFAFSTYDLSWVRQAPGKGLEWVAYINNGGISTYYSDTVKGRFTISRDNAKNSLYLQMNSLRAEDTAVYYCVRGPFYGSANYFDYWGQGTLVTVSS VL: DIQMTQSPSSLSASVGDRVTITCRTSESIYSNLPWYQQKPGKSPKLLIYDATKLAEGVPSRFSGSGSGTDFTLTISSLQPEDFATYYCQHFWVTPWTFGQGTKVEIK
			94.7	001-Hu1 (antibody, V domains shown, Humanized form of #001; also called VH1 + VL1) VH: EVQLVESGGGLVQPGGSLRLSCAASGFAFSTYDLSWVRQAPGKGLEWVAYINNGGISTYYSDTVKGRFTISRDNAKNTLYLQMNSLRAEDTAVYYCVRGPFYGSANYFDYWGQGTLVTVSS VL: DIQMTQSPSSLSASVGDRVTITCRTSESIYSNLPWYQQKPGKAPKLLLYDATKLAEGVPSRFSGSGSGTDYTLTISSLQPEDFATYYCQHFWVTPWTFGQGTKVEIK
			105	001-Hu3 (antibody, V domains shown, Humanized form of #001; also called VH1 + VL3) VH: EVQLVESGGGLVQPGGSLRLSCAASGFAFSTYDLSWVRQAPGKGLEWVAYINNGGISTYYSDTVKGRFTISRDNAKNTLYLQMNSLRAEDTAVYYCVRGPFYGSANYFDYWGQGTLVTVSS VL: DIQMTQSPSSLSASVGDRVTITCRTSESIYSNLPWYQQKPGKAPKLLIYDATKLAEGVPSRFSGSGSGTDYTLTISSLQPEDFATYYCQHFWVTPWTFGQGTKVEIK
